# Target: Hsp90alpha (UniProt P07900)
# Assay: FP filter
# Details: 5-10-5 gapmer, cEt wings 1-5 and 16-20, 2'-deoxy gap, all C 5mC, full PS; nitrocellulose double-filter binding, printed as binding constant
sequence,measurement,value
CTGCTAGCCTCTGGATTTGA [Isis 586183 (PS/cEt)],Kd,0.0197 µM

# From US20180148718
